This is an account of results in patent publication US20160033500A1 (SYSMEX, published 2016).

In experiment [1] the target is T1, human serum albumin (human, UniProt P02768 25-609).
T1 construct: Adsorbed on an unmodified silicon nitride sensor chip (HSA sensor chip) from a 0.2 µM solution; also called HSA
The experiment is described as follows: reflection interference spectroscopy, HSA sensor chip, 1000 µM peptide.

Experiment [2] addresses T1, human serum albumin. The experiment is described as follows: coefficient b of the two-exponential dissociation fit (Equation I), HSA sensor chip, 1000 µM peptide.
In experiment [3] the target is T1, human serum albumin. The experiment is described as follows: coefficient b of the two-exponential dissociation fit (Equation I), HSA sensor chip, 10 µM peptide.
Procedure: (§1) The wavelength variation Δλ of the bottom wavelength of the spectral reflectivity curve of the reflected light (the layer thickness change amount Δλ) when the flow path was irradiated with white light was measured with time, whereby a sensorgram was obtained.
Experiment [4] addresses T1, human serum albumin. The experiment is described as follows: reflection interference spectroscopy, HSA sensor chip, 10 µM peptide.
Procedure: as §1
The target in experiment [5] is T1, human serum albumin. The experiment is described as follows: reflection interference spectroscopy, HSA sensor chip, 2 µM peptide.
Procedure: Then, a running buffer (0.1 M sodium phosphate buffer (pH 6.9)) was injected into a flow path formed between the substrate and the flow cell at a flow rate of 100 μL/min for 30 minutes or more so as to equilibrate the surface of the substrate. […] In injecting the running buffer or the sample, a liquid feeding pump for high-performance liquid chromatograph [product name: Prominence UFLC, manufactured by Shimadzu Corporation] and an autosampler [product name: Chromaster, manufactured by Hitachi, Ltd.] were used. As a result, a solid phase carrier having HSA immobilized on the surface thereon (hereinafter also referred to as “HSA sensor chip”) was obtained. In injecting the HSA solution into the flow path, the wavelength variation Δλ of bottom wavelength of the spectral reflectivity curve of the reflected light when the flow path was irradiated with white light was measured with time, whereby a sensorgram showing the time-dependent change of the wavelength variation Δλ was obtained.
Experiment [6] concerns the target T1, human serum albumin. The experiment is described as follows: reflection interference spectroscopy, HSA sensor chip, 100 µM peptide.
Procedure: as §1
Experiment [7] has as its target T1, human serum albumin. The experiment is described as follows: reflection interference spectroscopy, HSA sensor chip, 1 µM peptide.
Experiment [8] addresses T1, human serum albumin. The experiment is described as follows: reflection interference spectroscopy, HSA sensor chip, 10 µM lysozyme.
For experiment [9], the target named is T1, human serum albumin. The experiment is described as follows: reflection interference spectroscopy, HSA sensor chip, 50 µM peptide.

As for (His) 3 (peptide), in the experiment with human serum albumin [1], the off-rate (koff) – broadly, the first-order rate constant of dissociation – was found to be 0.00257 s⁻¹ and the maximum layer thickness change amount Δλ amounted to 0.027 nm. This molecule also displayed a b value with human serum albumin [2] of 0.344.

In the case of YSMEHFRWGKPVGKK [ACTH15], the b value with human serum albumin [3] was 0.029. For the same molecule, in the experiment with human serum albumin [4], the koff is 0.0115 s⁻¹ and the “maximum layer thickness change amount Δλ” value is 0.061 nm.

B1: ACTH partial peptide at the 1-41 positions (peptide)
peptide: GPSYSMEHFRWGKPVGKKRRPVKVYPNGAEDESAEAFPLEF
notes: Synthetic peptide from Biologica Co, Ltd; also called ACTH41
Regarding B1, the binding result with human serum albumin [5] is on record as “binds”.

With KKKKKKKKKK [(Lys) 10], in the experiment with human serum albumin [6], the off-rate constant (koff) was determined as 0.0002 s⁻¹.

For RRRRRRRRRR (also called (Arg)10) [arginine decapeptide], in the experiment with human serum albumin [5], the binding result is “binds”.

As for HHHHHHHHHH [(His) 10], in the experiment with human serum albumin [3], the b value was determined as 0.093. In the experiment with human serum albumin [4], the koff was determined as 0.00073 s⁻¹ and the “maximum layer thickness change amount Δλ” value is 0.086 nm.

With GVPGLGVGAGV [ELN 11mer], the koff in the experiment with human serum albumin [7] amounted to 0.00016 s⁻¹.

B2: Kininogen (peptide)
peptide: HNLGHGHKHERDQGHGHQR
notes: Named as the protein, but a 19-residue peptide was used
Consider B2, for which the off-rate (koff) in the experiment with human serum albumin [6] came out at 0.00493 s⁻¹.

B3: Lysozyme (enzyme)
chain: KVYGRCELAAAMKRLGLDNFRGYSLGNWVCAAKFESNFNTHATNRNTDGSTDYGILQINSRWWCNDGRTPGSRNLCNIPCSALLSSDTIASVNCAKKIVSDGNGMNAWVAWRKRCKGTDVNAWTRGCRL
In the case of B3, the koff with human serum albumin [8] stood at 0.0066 s⁻¹.

B4: inter-α-trypsin inhibitor heavy chain 4 (peptide)
peptide: GESRNRNVHSGSTFFKYYLQGAKIPKPEASFS
notes: Named as the protein, but a 32-residue peptide was used; also called ITIH4
For B4, the binding result with human serum albumin [5] was “binds”.

B5: ACTH partial peptide at the 1-24 positions (peptide)
peptide: SYSMEHFRWGKPVGKKRRPVKVYP
notes: Synthetic peptide from Biologica Co, Ltd; also called ACTH24
As for B5, in the experiment with human serum albumin [5], the binding result is “binds”.

B6: fibrinogen α (peptide)
peptide: DEAGSEADHEGTHSTKRGHAKSRPV
notes: Named as the protein, but a 25-residue peptide was used
In the case of B6, in the experiment with human serum albumin [5], the binding result is “binds”.

Take HHHHHHHHHHHHHHHHHHHH (also called (His)20) [histidine eicosa peptide]: the binding result in the experiment with human serum albumin [5] is “binds”.

In the case of AWAVARLSQRFPK [IS 13mer], the koff with human serum albumin [9] amounted to 0.0171 s⁻¹.
